Experiment [1] addresses AP_SAP11-like_PM19-GFP ('Candidatus Phytoplasma mali' strain PM19). In words: FRET or BRET.
Experiment [2] has as its target AP_SAP11-like_PM19^Δ40-56-GFP ('Candidatus Phytoplasma mali' strain PM19). In words: FRET or BRET.

B1: AtTCP4-RFP (natural protein)
chain: MSDDQFHHPPPPSSMRHRSTSDAADGGCGEIVEVQGGHIVRSTGRKDRHSKVCTAKGPRDRRVRLSAHTAIQFYDVQDRLGFDRPSKAVDWLIKKAKTSIDELAELPPWNPADAIRLAAANAKPRRTTAKTQISPSPPPPQQQQQQQQLQFGVGFNGGGAEHPSNNESSFLPPSMDSDSIADTIKSFFPVIGSSTEAPSNHNLMHNYHHQHPPDLLSRTNSQNQDLRLSLQSFPDGPPSLLHHQHHHHTSASASEPTLFYGQSNPLGFDTSSWEQQSSEFGRIQRLVAWNSGGGGGATDTGNGGGFLFAPPTPSTTSFQPVLGQSQQLYSQRGPLQSSYSPMIRAWFDPHHHHQSISTDDLNHHHHLPPPVHQSAIPGIGFASGEFSSGFRIPARFQGQEEEQHDGLTHKPSSASSISRH
In turn, B1 yielded an FRET efficiency in experiment [1] of 11%.

B2: AtTCP13-RFP (natural protein)
chain: MNIVSWKDANDEVAGGATTRREREVKEDQEETEVRATSGKTVIKKQPTSISSSSSSWMKSKDPRIVRVSRAFGGKDRHSKVCTLRGLRDRRVRLSVPTAIQLYDLQERLGVDQPSKAVDWLLDAAKEEIDELPPLPISPENFSIFNHHQSFLNLGQRPGQDPTQLGFKINGCVQKSTTTSREENDREKGENDVVYTNNHHVGSYGTYHNLEHHHHHHQHLSLQADYHSHQLHSLVPFPSQILVCPMTTSPTTTTIQSLFPSSSSAGSGTMETLDPRQMVSHFQMPLMGNSSSSSSQNISTLYSLLHGSSSNNGGRDIDNRMSSVQFNRTNSTTTANMSRHLGSERCTSRGSDHHM
With B2, the FRET efficiency in experiment [1] was found to be 9%; in experiment [2], 8%.

For the origin of these results see paper doi:10.1101/2020.05.13.094045.
